Measured values reported in PMC12136792, “ADP ribosylation factor–like GTPase 6–interacting protein 5 (Arl6IP5) is an ER membrane-shaping protein that modulates ER-phagy” (The Journal of Biological Chemistry, 2025).

Target: the molecule itself
Assay: SDS-PAGE and immunoblot without cross-linker (SDS-resistant dimer); same membrane fraction of COS-7 cells transfected with HA-Arl6IP5, without BS3; anti-HA immunoblot

B1: HA-tagged Arl6IP5 (ADP ribosylation factor-like GTPase 6-interacting protein 5) (natural protein, human, UniProt O75915 1-188, looked up)
chain: MDVNIAPLRAWDDFFPGSDRFARPDFRDISKWNNRVVSNLLYYQTNYLVVAAMMISIVGFLSPFNMILGGIVVVLVFTGFVWAAHNKDVLRRMKKRYPTTFVMVVMLASYFLISMFGGVMVFVFGITFPLLLMFIHASLRLRNLKNKLENKMEGIGLKRTPMGIVLDALEQQEEGINRLTDYISKVKE
notes: Arl6IP5, human, cDNA in pCMV vector with N-terminal HA tag; ER membrane protein; tested in the membrane fraction, not solubilised; also called HA-Arl6IP5; PRAF3; source: COS-7, transfected (PEI), crude membrane fraction; not shown: HA, N-terminal, kept
How did the “stoichiometry N” value turn out when B1 was run?
The value was 2.
